Substitutions are numbered along the chain they refer to.
T1: h α2B adr (Homo sapiens, UniProt P18089)
T1 construct: expressed in transfected cells; host or cells: COS-7
T1 sequence (P18089 1-450): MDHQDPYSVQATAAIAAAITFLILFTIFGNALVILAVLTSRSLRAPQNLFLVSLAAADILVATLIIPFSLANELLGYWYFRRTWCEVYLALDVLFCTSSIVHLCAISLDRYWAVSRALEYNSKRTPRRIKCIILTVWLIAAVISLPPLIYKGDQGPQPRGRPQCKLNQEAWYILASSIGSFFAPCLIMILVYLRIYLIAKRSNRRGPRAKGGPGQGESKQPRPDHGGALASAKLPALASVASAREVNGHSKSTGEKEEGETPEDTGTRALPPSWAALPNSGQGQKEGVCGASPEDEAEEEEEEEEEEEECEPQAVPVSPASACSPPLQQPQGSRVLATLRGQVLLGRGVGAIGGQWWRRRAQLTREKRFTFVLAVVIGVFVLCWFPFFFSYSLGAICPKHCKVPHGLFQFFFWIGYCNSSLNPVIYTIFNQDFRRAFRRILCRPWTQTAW

T2: h 5HT1A (Homo sapiens, UniProt P08908)
T2 sequence (P08908 1-422): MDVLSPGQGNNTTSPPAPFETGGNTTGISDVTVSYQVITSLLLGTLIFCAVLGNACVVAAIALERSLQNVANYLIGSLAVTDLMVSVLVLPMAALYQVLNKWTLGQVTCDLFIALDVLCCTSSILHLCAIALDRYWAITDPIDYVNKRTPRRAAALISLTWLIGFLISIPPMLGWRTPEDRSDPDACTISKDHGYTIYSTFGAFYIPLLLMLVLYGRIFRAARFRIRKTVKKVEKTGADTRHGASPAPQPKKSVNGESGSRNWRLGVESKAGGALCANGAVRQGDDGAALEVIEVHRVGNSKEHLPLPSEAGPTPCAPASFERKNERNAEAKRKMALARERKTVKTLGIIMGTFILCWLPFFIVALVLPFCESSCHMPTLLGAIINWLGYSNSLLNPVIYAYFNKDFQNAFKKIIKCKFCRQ

T3: r GALR2 (Rattus norvegicus, UniProt O08726)
T3 construct: expressed in transfected cells; host or cells: COS-7
T3 sequence (O08726 1-372): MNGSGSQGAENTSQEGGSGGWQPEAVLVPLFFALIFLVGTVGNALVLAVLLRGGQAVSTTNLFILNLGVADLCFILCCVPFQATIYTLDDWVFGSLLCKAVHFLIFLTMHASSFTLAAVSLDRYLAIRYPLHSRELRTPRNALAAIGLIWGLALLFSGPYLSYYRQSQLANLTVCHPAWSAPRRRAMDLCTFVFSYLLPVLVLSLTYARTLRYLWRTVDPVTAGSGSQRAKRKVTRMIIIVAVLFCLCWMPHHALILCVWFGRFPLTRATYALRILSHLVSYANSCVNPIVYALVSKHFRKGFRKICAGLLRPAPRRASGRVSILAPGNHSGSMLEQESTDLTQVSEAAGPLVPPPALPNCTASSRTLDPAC

B1: cGαq/z5: chimeric Gα subunit: C-terminal final 5 amino acids of C. elegans Gαq replaced with those of hGαz (SEQ ID NO: 1) (protein)
chain: MACCLSEEAREQKRINQEIEKQLQRDKRNARRELKLLLLGTGESGKSTFIKQMRIIHGQGYSEEDKRAHIRLVYQNVFMAIQSMIRAMDTLDIKFGNESEELQEKAAVVREVDFESVTSFEEPYVSYIKELWEDSGIQECYDRRREYQLTDSAKYYLSDLRRLAVPDYLPTEQDILRVRVPTTGIIEYPFDLEQIIFRMVDVGGQRSERRKWIHCFENVTSIMFLVALSEYDQVLVECDNENRMEESKALFRTIITYPWFTNSSVILFLNKKDLLEEKILYSHLADYFPEYDGPPRDPIAAREFILKMFVDLNPDADKIIYSHFTCATDTENIRFVFAAVKDTILQHNLKYIGLC
modifications: C. elegans
B2: cGαq/z9: C. elegans Gαq with Gαz portion of the C-terminal tail extended to 9 amino acids (SEQ ID NO: 2) (protein)
chain: B1 chain with H347N
modifications: C. elegans

Tests used:
Experiment in all cases: Calcium mobilization (FLIPR, Fluo-3) in transfected COS-7 cells
Format in all cases: cell-based
h D3 = h D3 (Homo sapiens, UniProt P35462); conditions: h D3 + chimera in COS-7; agonist DA, max 100 μM
Chain of h D3 (P35462 whole entry): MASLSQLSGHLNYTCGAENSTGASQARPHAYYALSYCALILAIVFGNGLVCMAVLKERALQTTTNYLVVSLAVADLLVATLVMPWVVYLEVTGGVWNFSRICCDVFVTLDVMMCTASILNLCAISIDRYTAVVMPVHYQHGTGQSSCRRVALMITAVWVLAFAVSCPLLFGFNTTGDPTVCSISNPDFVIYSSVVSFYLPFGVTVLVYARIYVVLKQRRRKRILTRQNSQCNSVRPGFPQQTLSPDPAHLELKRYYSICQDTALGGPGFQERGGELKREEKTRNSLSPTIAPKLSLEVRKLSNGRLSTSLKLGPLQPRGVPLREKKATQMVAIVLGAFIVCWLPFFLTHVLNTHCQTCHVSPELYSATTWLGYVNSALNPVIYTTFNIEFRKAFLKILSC
In short: (§1)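 Calcium responses to agonist were measured in COS-7 cells co-expressing each receptor with Gαq/z and/or Gαq/s chimeras, using Fluo-3 dye and FLIPR detection over 3 min at room temperature.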

h α2B adr = target: T1, h α2B adr; conditions: h α2B adr + chimera in COS-7; agonist NE, max 100 μM
In short: as §1

h 5HT1A = target: T2, h 5HT1A; conditions: h 5HT1A + chimera in COS-7; agonist 5HT, max 100 μM
In short: as §1

r GALR2 = target: T3, r GALR2; conditions: r GALR2 + chimera in COS-7; agonist GAL, max 10 μM
In short: as §1

r NTR1 = target: T4, r NTR1 (Rattus norvegicus, UniProt P20789); conditions: r NTR1 + chimera in COS-7; agonist NT, max 1 μM
T4 construct: expressed in transfected cells; host or cells: COS-7
T4 sequence (P20789 whole entry): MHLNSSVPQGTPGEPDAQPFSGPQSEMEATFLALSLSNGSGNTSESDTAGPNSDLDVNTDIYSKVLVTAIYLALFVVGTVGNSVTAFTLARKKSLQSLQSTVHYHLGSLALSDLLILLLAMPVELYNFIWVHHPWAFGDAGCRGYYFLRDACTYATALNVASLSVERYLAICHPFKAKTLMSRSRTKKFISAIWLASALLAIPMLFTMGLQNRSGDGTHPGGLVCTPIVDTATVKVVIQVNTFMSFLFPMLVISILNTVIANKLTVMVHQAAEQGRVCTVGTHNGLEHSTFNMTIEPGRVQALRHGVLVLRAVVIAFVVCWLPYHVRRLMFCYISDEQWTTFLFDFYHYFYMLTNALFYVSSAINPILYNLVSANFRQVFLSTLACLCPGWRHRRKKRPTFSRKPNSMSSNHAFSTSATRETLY
In short: as §1

r Y4 = r Y4 (Rattus norvegicus, UniProt Q63447); conditions: r Y4 + chimera in COS-7; agonist PP, max 10 μM
Chain of r Y4 (Q63447 whole entry): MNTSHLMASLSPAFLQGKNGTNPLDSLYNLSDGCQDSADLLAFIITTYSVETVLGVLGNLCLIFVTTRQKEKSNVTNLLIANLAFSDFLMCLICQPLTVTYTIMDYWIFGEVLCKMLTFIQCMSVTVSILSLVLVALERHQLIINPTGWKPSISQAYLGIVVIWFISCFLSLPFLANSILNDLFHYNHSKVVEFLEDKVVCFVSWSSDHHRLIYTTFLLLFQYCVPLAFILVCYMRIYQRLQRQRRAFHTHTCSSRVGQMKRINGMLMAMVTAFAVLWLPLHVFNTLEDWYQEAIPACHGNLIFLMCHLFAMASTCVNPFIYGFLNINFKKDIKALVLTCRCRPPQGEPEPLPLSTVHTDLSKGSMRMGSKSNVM
In short: as §1

h 5HT1B = h 5HT1B (Homo sapiens, UniProt P28222); conditions: h 5HT1B + chimera in COS-7; agonist 5HT, max 100 μM
Chain of h 5HT1B (P28222 whole entry): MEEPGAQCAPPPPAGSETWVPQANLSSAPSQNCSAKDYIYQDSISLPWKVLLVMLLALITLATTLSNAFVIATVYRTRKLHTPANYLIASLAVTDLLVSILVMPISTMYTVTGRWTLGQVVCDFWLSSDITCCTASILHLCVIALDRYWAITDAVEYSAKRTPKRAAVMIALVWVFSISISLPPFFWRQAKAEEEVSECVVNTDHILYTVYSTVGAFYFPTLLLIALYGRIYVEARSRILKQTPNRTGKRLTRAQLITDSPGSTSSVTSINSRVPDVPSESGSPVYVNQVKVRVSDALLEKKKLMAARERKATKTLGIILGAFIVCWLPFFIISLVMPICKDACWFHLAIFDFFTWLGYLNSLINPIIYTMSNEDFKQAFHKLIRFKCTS
In short: as §1

h D2 = target: T5, h D2 (Homo sapiens, UniProt P14416); conditions: h D2 + chimera in COS-7; agonist DA, max 100 μM
T5 construct: expressed in transfected cells; host or cells: COS-7
T5 sequence (P14416 whole entry): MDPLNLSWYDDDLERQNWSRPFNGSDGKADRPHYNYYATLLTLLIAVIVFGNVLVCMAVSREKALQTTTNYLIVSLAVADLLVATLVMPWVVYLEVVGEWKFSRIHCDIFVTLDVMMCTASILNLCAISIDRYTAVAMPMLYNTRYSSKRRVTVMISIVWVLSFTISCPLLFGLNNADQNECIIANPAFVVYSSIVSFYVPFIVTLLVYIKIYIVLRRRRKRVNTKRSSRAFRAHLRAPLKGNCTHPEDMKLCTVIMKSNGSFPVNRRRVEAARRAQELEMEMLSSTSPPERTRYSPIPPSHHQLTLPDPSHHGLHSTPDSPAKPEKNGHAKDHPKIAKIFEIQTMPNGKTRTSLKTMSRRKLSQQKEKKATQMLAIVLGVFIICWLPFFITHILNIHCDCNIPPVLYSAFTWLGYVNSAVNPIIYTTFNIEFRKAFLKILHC
In short: as §1

h 5HT1E = h 5HT1E (Homo sapiens, UniProt P28566); conditions: h 5HT1E + chimera in COS-7; agonist 5HT, max 100 μM
Chain of h 5HT1E (P28566 whole entry): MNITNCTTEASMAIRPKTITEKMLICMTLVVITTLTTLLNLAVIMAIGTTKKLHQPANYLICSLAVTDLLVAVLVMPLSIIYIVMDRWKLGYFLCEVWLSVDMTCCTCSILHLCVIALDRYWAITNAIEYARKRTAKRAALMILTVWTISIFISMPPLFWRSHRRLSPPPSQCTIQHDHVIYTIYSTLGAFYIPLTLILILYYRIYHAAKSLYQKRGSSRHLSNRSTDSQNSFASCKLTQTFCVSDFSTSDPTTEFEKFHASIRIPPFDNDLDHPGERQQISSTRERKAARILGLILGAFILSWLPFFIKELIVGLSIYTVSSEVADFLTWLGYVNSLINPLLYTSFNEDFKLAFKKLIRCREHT
In short: as §1

Molecule	MAXIMAL SIGNAL (FLUORESCENCE UNITS) (h D3)	MAXIMAL SIGNAL (FLUORESCENCE UNITS) (h α2B adr)	MAXIMAL SIGNAL (FLUORESCENCE UNITS) (h 5HT1A)	MAXIMAL SIGNAL (FLUORESCENCE UNITS) (r GALR2)	MAXIMAL SIGNAL (FLUORESCENCE UNITS) (r NTR1)	MAXIMAL SIGNAL (FLUORESCENCE UNITS) (r Y4)	MAXIMAL SIGNAL (FLUORESCENCE UNITS) (h 5HT1B)	MAXIMAL SIGNAL (FLUORESCENCE UNITS) (h D2)	MAXIMAL SIGNAL (FLUORESCENCE UNITS) (h 5HT1E)
B1	0 fluorescence units	4983 fluorescence units	1997 fluorescence units	4198 fluorescence units	14476 fluorescence units	3662 fluorescence units	929 fluorescence units	7615 fluorescence units	229 fluorescence units
B2	121 fluorescence units	5138 fluorescence units	3139 fluorescence units	4470 fluorescence units	6111 fluorescence units	2583 fluorescence units	1217 fluorescence units	4305 fluorescence units	238 fluorescence units
